This passage reports median IC50 of inhibition of the IFN-induced ISRE-luciferase reporter response in transfected HEK293 cells results from article PMC4967814.

This assay addresses each of 12 IFNα subtypes and IFNω (ISRE-luciferase reporter assay, median IC50).

B1: rontalizumab, in-house-generated recombinant (antibody, INN chains, looked up, V domains shown)
VH: EVQLVESGGGLVQPGGSLRLSCATSGYTFTEYIIHWVRQAPGKGLEWVASINPDYDITNYNQRFKGRFTISLDKSKRTAYLQMNSLRAEDTAVYYCASWISDFFDYWGQGTLVTVSS
VL: DIQMTQSPSSLSASVGDRVTITCRASQSVSTSSYSYMHWYQQKPGKAPKVLISYASNLESGVPSRFSGSGSGTDFTLTISSLQPEDFATYYCQHSWGIPRTFGQGTKVEIKR
Turning to B1, the median IC50 of inhibition of the IFN-induced ISRE-luciferase reporter response in transfected HEK293 cells came out at 0.0109 µg/mL.
